We go through 15 molecules from US20190135918A1 (ICHNOS SCIENCES, published 2019).

To fix the notation:
B1: humanized HB-7 best-fit antibody (antibody, human IgG1, kappa, V domains shown)
VH: QVQLQESGPGLVKPSETLSLTCTVSGFSLISYGVHWVRQPPGKGLEWLGVIWRGGSTDYNAAFMSRLTISKDNSKNQVSLKLSSVTAADTAVYFCAKTLITTGYAMDYWGQGTLVTVSS
VL: DIQLTQSPSSLSASVGDRVTITCRASEDIYNRLAWYQQKPGKAPKLLISGATSLETGVPSRFSGSGSGKDYTLTISSLQPEDFATYYCQQYWSTPTFGQGTKLEIKR
notes: Human IgG1 format
B2: chimeric HB-7 antibody (antibody, human IgG1, kappa, V domains shown)
VH: KVQLQESGPSLVQPSQRLSITCTVSGFSLISYGVHWVRQSPGKGLEWLGVIWRGGSTDYNAAFMSRLSITKDNSKSQVFFKMNSLQADDTAIYFCAKTLITTGYAMDYWGQGTTVTVSS
VL: DIELTQSPSSFSVSLGDRVTITCKASEDIYNRLAWYQQKPGNAPRLLISGATSLETGVPSRFSGSGSGKDYTLSITSLQTEDVATYYCQQYWSTPTFGGGTKLEIKR
B3: VH5/VL3 (antibody, human IgG1, kappa, V domains shown)
VH: EVQLVESGGGLVQPGGSLRLSCAASGYTFTRYTMHWVRQAPGKGLEWVGYINPSRGYTRYADSVKGRFTLSTDKSKNTAYLQMNSLRAEDTAVYYCARYYDDHYCLDYWGQGTLVTVSS
VL: DIQLTQSPSSLSASVGDRVTITCRASSSVSYVAWYQQKPGKAPKLLIYDTSKLYSGVPSRFSGSRSGTDYTLTISSLQPEDFATYYCQQWSSNPPTFGQGTKVEIKR
notes: human IgG1; also called humanized OKT3 VH5/VL3 antibody; copies: 2 + 2
B4: VH6/VL4 (antibody, human IgG1, kappa, V domains shown)
VH: B3 VH with V48I
VL: B3 VL with L45R, L46W
notes: human IgG1; also called humanized OKT3 VH6/VL4 antibody; copies: 2 + 2
B5: VH5/VL4 (antibody, human IgG1, kappa, V domains shown)
VH: B3 VH
VL: B3 VL with L45R, L46W
notes: human IgG1; also called humanized OKT3 VH5/VL4 antibody; copies: 2 + 2
B6: VH6/VL5 (antibody, human IgG1, kappa, V domains shown)
VH: B3 VH with V48I
VL: B3 VL with V32M, A33N
notes: human IgG1; also called humanized OKT3 VH6/VL5 antibody; copies: 2 + 2
B7: VH6/VL6 (antibody, human IgG1, kappa, V domains shown)
VH: B3 VH with V48I
VL: B3 VL with L45R, L46W, P95F
notes: human IgG1; also called humanized OKT3 VH6/VL6 antibody; copies: 2 + 2
B8: VH5/VL6 (antibody, human IgG1, kappa, V domains shown)
VH: B3 VH
VL: B3 VL with L45R, L46W, P95F
notes: human IgG1; also called humanized OKT3 VH5/VL6 antibody; copies: 2 + 2
B9: VH7/VL4 (antibody, human IgG1, kappa, V domains shown)
VH: B3 VH with R59N
VL: B3 VL with L45R, L46W
notes: human IgG1; also called humanized OKT3 VH7/VL4 antibody; copies: 2 + 2
B10: humanized OKT3 VH11/VL4 antibody (antibody, human IgG1, V domains shown)
VH: B3 VH with V48I, R59Y, N84S
VL: B3 VL with L45R, L46W
notes: Human IgG1; copies: 2 + 2
B11: VH9/VL8 (antibody, human IgG1, kappa, V domains shown)
VH: B3 VH with V48I, R59Y, G66S
VL: B3 VL with L45R, L46W, R65G
notes: human IgG1; also called humanized OKT3 VH9/VL8 antibody; copies: 2 + 2
B12: VH10/VL4 (antibody, human IgG1, kappa, V domains shown)
VH: B3 VH with V48I, R59Y, G66S, F68A
VL: B3 VL with L45R, L46W
notes: human IgG1; also called humanized OKT3 VH10/VL4 antibody; copies: 2 + 2
B13: VH10/VL8 (antibody, human IgG1, kappa, V domains shown)
VH: B3 VH with V48I, R59Y, G66S, F68A
VL: B3 VL with L45R, L46W, R65G
notes: human IgG1; also called humanized OKT3 VH10/VL8 antibody; copies: 2 + 2
B14: humanized OKT3 VH8/VL4 antibody (antibody, human IgG1, V domains shown)
VH: B3 VH with V48I, R59Y
VL: B3 VL with L45R, L46W
notes: Human IgG1; copies: 2 + 2
B15: VH6/VL8 (antibody, human IgG1, kappa, V domains shown)
VH: B3 VH with V48I
VL: B3 VL with L45R, L46W, R65G
notes: human IgG1; also called humanized OKT3 VH6/VL8 antibody; copies: 2 + 2

Numbering of substitutions follows the chain as printed.

As usually defined, the Kd is the concentration at which binding is half-saturated. High values mean lower affinity, low ones higher affinity.

The first assay has as its target T1, soluble extracellular region of human CD38 fused to a 6-His-tag (human, UniProt P28907 43-300).
T1 construct: Expressed with the murine VJ2C leader; also called human CD38 protein; human CD38 antigen
Briefly: SPR, antibody captured on protein G, CD38 injected.
B1 registered an equilibrium dissociation constant (Kd) of 3.6 nM.

B2: the Kd was 2.5 nM.

A further assay has as its target T2, human CD3 epsilon on cells (human, UniProt P07766 23-207).
T2 construct: whole, on cells; On cells it stands in the CD3/TCR complex; also called HPB-ALL cells (human CD3 epsilon positive T cell tumour line); CD3 on human T cells
Put plainly: FACS staining of HPB-ALL cells, human IgG1 format, graded relative to chimeric OKT3.
Method: (§1) HPB-ALL cells (DSMZ, Braunschweig, Germany, Cat. No: ACC483) were used as CD3 positive cell line for FACS staining. […] After washing, cells were incubated with a 1/200 dilution of anti-Human Fc-PE (EBioscience, Vienna, Austria) for 45 min on ice. Cells were then washed again and resuspended in 200 ul FACS buffer.
With B3, the binding result is recorded as “binds”.

On to B4, for which the binding result is given as “binds”.

As to B5, the binding result was “binds”.

Regarding B6, the binding result is “binds”.

Regarding B7, the binding result is reported as “binds”.

Turning to B8, the binding result was “binds”.

The target of the next assay is T2, human CD3 epsilon on cells. Described as above. The source holds these as a separate data set.
Method: as §1
B9: the binding result was “binds”.

As to B10, the binding result is given as “binds”.

Regarding B11, the binding result is on record as “binds”.

For B12, the binding result is “binds”.

Turning to B13, the binding result is reported as “binds”.

Turning to B14, the binding result was “binds”.

Take B15: the binding result was “binds”.
